Source: US20110076723A1, “ANTIBODY-PEPTIDE FUSED SYNERGIBODY” (SAMSUNG ELECTRONICS CO., LTD., priority 2008, published 2011)

T1: recombinant hAng-2 (recombinant protein with His tag attached to human Ang-2; R&D Systems) (human, UniProt O15123 19-496)
T1 construct: also called angiopoietin-2; ANGPT2
T1 sequence (looked up): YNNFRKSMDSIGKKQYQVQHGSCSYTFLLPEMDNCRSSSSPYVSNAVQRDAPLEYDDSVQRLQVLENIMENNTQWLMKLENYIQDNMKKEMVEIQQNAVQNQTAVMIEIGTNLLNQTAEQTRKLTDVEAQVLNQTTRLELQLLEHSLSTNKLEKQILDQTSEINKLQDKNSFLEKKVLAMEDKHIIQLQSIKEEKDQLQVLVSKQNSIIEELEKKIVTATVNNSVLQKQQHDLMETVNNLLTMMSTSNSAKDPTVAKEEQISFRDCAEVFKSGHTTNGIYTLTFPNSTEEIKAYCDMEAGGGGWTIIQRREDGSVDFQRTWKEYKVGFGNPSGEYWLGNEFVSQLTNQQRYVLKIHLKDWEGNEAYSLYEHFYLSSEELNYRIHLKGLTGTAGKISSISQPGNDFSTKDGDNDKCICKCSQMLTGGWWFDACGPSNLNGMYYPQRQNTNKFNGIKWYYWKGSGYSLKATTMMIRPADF


Key:
[1] = target: T1, recombinant hAng-2 (recombinant protein …); assay: competitive ELISA; synergibody titrated with 1 nM hAng-2 (His) on coated hTie2-Fc
Description: A competitive ELISA is performed to assess the molecular interaction of the binders. A 96-well MaxiSorp™ flat-bottom plate (Nunc) is coated with hTie2-Fc (R&D Systems), which is a fused protein including the water-soluble extracellular portion of human Tie-2 and Fc of human IgG₁ dissolved in DMEM culture solution containing 50 μg/ml bovine serum albumin (BSA). The concentration of hTie2-Fc used as a coating material is equivalent to 75% of its maximum binding concentration with 1 nM of recombinant hAng-2 (recombinant protein with His tag attached to human Ang-2; R&D Systems). Then the plate is washed five times with Phosphate Buffer Saline (PBS) containing 0.1% Tween-20 and blocked at room temperature for two hours with PBS containing 5% BSA. Each anti-Ang-2 antibodies are diluted from 100 nM by one-fourth each time with PBS containing 1% BSA and 1 nM hAng-2 and adjusted to 6.1 pM for Ang-2:Tie-2 neutralization ELISA. 100 μl of antibody/hAng-2 solutions are placed in each corresponding well and left to react at room temperature for two hours. Then the wells are washed five times with PBS containing 0.1% Tween-20, and the anti-His antibodies (GE Healthcare) are diluted to about 1:3,000 with PBS containing 1% BSA and left to react at room temperature for one hour. Afterwards, 100 μl of goat anti-mouse-IgG-HRP (Pierce) diluted with PBS containing 1% BSA to about 1:10,000 is added to each well of the plate, left to react at room temperature for one hour, and washed with PBS containing 0.1% Tween-20 five times. Lastly, 100 μl of TMB substrate (SIGMA) is added to each well of the plate to induce color reaction, and the reaction is stopped by adding 50 μl of 5N H₂SO₄ solution. The OD₄₅₀ value is read on a plate reader (Molecular Devices).
The method described in Example 1, Section 3 above is used, except that, in the present example, each fused protein synergibodies are diluted from 100 nM to one-fourth each time with PBS containing 1% BSA and 1 nM hAng-2 and adjusted to 6.1 pM for Ang-2:Tie-2 neutralization ELISA.

[2] = target: T2, recombinant VEGFR-2 protein (water soluble extracellular site of human VEGFR-2 with Fc of human IgG1 … (human, UniProt P35968 20-764)); assay: competitive ELISA; synergibody titrated with 1 nM VEGFR-2 on coated VEGF 165
T2 construct: extracellular domain; Bought; not shown: Fc of human IgG1
Description: Competitive ELISA is performed using the peptides synthesized above in Section 6A in order to assess the molecular interaction of the binders. […] Then the plate is washed five times with PBS containing 0.1% Tween-20, and blocked at room temperature for two hours with PBS containing 5% BSA. For VEGF:VEGFR-2 neutralization ELISA, each of the peptides synthesized in Section 6A above are diluted to one-fourth each time from 100 nM with PBS containing 1 nM VEGFR-2 and 1% BSA, and adjusted to 6.1 pM. 100 μl of peptide/VEGFR-2 solution is added to each well and the plate is left to react at room temperature for two hours. Subsequently, it is washed five times with PBS containing 0.1% Tween-20, mouse anti-VEGFR-2 antibodies (R&D Systems) is diluted to about 1:3,000 with PBS containing 1% BSA, and left to react at room temperature for one hour. Then 100 μl of goat anti-mouse-IgG-HRP (Pierce) diluted to about 1:10,000 with PBS containing 1% BSA is added to each well of the plate, left to react at room temperature for one hour, and washed five times with PBS containing 0.1% Tween-20. Lastly, 100 μl of TMB substrate (SIGMA) is added to each well of the plate to induce color reaction. The reaction is stopped by adding 50 μl of 5N H₂SO₄ solution, and the OD₄₅₀ value is read on a plate reader (Molecular Devices). Through the foregoing, the IC₅₀ value for the VEGF:VEGFR-2 binding capacity is obtained.
The method in Example 2, Section 6B above is used, except that, in the present example, each fused protein synergibodies are diluted from 100 nM to one-fourth each time with PBS containing 1% BSA and 1nM VEGFR-2 and adjusted to 6.1 pM for VEGF:VEGF-2 neutralization ELISA.

T2 sequence (P35968 20-764): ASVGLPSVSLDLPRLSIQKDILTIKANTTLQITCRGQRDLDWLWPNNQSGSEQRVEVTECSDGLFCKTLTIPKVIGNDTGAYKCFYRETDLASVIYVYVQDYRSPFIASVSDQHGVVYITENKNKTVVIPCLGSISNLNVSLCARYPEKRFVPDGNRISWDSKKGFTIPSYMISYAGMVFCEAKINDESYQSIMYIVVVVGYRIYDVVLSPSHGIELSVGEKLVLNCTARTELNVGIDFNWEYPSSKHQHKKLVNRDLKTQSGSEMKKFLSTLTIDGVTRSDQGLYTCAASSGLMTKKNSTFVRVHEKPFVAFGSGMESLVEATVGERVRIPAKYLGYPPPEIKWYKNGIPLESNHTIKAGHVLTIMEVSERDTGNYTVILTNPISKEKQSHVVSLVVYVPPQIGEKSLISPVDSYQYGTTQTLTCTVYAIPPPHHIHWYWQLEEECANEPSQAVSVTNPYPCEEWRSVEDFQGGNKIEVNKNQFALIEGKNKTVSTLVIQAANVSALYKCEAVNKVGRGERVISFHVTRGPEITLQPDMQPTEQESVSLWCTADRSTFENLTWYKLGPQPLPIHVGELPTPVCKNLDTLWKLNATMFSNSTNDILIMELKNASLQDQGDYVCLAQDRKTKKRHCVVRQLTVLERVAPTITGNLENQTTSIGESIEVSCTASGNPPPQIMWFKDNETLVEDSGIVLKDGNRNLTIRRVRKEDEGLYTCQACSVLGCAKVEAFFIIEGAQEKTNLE

| IC50 [1] | IC50 [2] | Binder |
| --- | --- | --- |
| 2 nM | 2.16 nM | Syn-Ang-VEGFR-10 (other, Chimeric (human IgG1) SAITAng-2-2 with the peptide at the C-terminus of the heavy chain; also called SAITAng-2-2 x DTN11VEGFR-2-5; not shown: human IgG1 heavy chain constant region with Fc region, from the vector; human light chain constant region, printed as 'constant region of human IgG1') heavy (part 1 of 2): QVQLQQSGPELVKPGASVKMSCKASGYTFTDYVISWVKQRTGQGLEWIGEIYPGSGSTYYNEKFKGKASLTADKSSNTAYMQLSSLTSADSAVYFCVRSRGDYYAMDYWGQGTSVTVSS heavy (part 2 of 2): PGSQGYCHLNMRYQWICDSE light: DIQMTQSPSSLSASLGGKVTITCKASQDINNYITWYQHKPGKGPRLLIHYTSTLQPGIPSRFSGSGSGRDYSFSISNLEPEDIATYYCLQYDNLLTFGGGTKLEIK |
| 0.858 nM | 0.872 nM | Syn-Ang-VEGFR-11 (other, Chimeric (human IgG1) SAITAng-2-3 with the peptide at the C-terminus of the heavy chain; also called SAITAng-2-3 x DTN6VEGFR-2-1; not shown: human IgG1 heavy chain constant region with Fc region, from the vector; human light chain constant region, printed as 'constant region of human IgG1') heavy (part 1 of 2): DVQLVESGGGLVQPGGSRKLSCAASGFTFSSFGMHWVRQAPEKGLEWVAYISSDSSTIYYADTVKGRFTISRDNPKNTLFLQMTSLRSEDTAMYYCAREGGYDDYYAMDYWGQGTSVTVSS heavy (part 2 of 2): TGSDDLCYTFPCMHY light: DIQMTQSPASQSASLGESVTITCLASQTIGTWLAWYQQKPGKSPQLLIYAATSLADGVPSRFSGSGSGTKFSFKISSLQAEDFVSYYCQQLYSIPLTFGGGTKLEIK |

Second part, the binder before the results:

| Binder | IC50 [1] | IC50 [2] |
| --- | --- | --- |
| Syn-Ang-VEGFR-6 (other, Chimeric (human IgG1) SAITAng-2-2 with the peptide at the C-terminus of the heavy chain; also called SAITAng-2-2 x DTN6VEGFR-2-1; not shown: human IgG1 heavy chain constant region with Fc region, from the vector; human light chain constant region, printed as 'constant region of human IgG1') heavy (part 1 of 2): QVQLQQSGPELVKPGASVKMSCKASGYTFTDYVISWVKQRTGQGLEWIGEIYPGSGSTYYNEKFKGKASLTADKSSNTAYMQLSSLTSADSAVYFCVRSRGDYYAMDYWGQGTSVTVSS heavy (part 2 of 2): TGSDDLCYTFPCMHY light: DIQMTQSPSSLSASLGGKVTITCKASQDINNYITWYQHKPGKGPRLLIHYTSTLQPGIPSRFSGSGSGRDYSFSISNLEPEDIATYYCLQYDNLLTFGGGTKLEIK | 1.91 nM | 1.56 nM |
| Syn-Ang-VEGFR-7 (other, Chimeric (human IgG1) SAITAng-2-2 with the peptide at the C-terminus of the heavy chain; also called SAITAng-2-2 x DTN8VEGFR-2-2; not shown: human IgG1 heavy chain constant region with Fc region, from the vector; human light chain constant region, printed as 'constant region of human IgG1') heavy (part 1 of 2): QVQLQQSGPELVKPGASVKMSCKASGYTFTDYVISWVKQRTGQGLEWIGEIYPGSGSTYYNEKFKGKASLTADKSSNTAYMQLSSLTSADSAVYFCVRSRGDYYAMDYWGQGTSVTVSS heavy (part 2 of 2): EAGKETCGYEWQYCPRP light: DIQMTQSPSSLSASLGGKVTITCKASQDINNYITWYQHKPGKGPRLLIHYTSTLQPGIPSRFSGSGSGRDYSFSISNLEPEDIATYYCLQYDNLLTFGGGTKLEIK | 2.01 nM | 1.76 nM |
| Syn-Ang-VEGFR-9 (other, Chimeric (human IgG1) SAITAng-2-2 with the peptide at the C-terminus of the heavy chain; also called SAITAng-2-2 x DTN10VEGFR-2-4; not shown: human IgG1 heavy chain constant region with Fc region, from the vector; human light chain constant region, printed as 'constant region of human IgG1') heavy (part 1 of 2): QVQLQQSGPELVKPGASVKMSCKASGYTFTDYVISWVKQRTGQGLEWIGEIYPGSGSTYYNEKFKGKASLTADKSSNTAYMQLSSLTSADSAVYFCVRSRGDYYAMDYWGQGTSVTVSS heavy (part 2 of 2): TGSGRMCDGSGPPTNCWFT light: DIQMTQSPSSLSASLGGKVTITCKASQDINNYITWYQHKPGKGPRLLIHYTSTLQPGIPSRFSGSGSGRDYSFSISNLEPEDIATYYCLQYDNLLTFGGGTKLEIK | 1.95 nM | 2.04 nM |
| Syn-Ang-VEGFR-8 (other, Chimeric (human IgG1) SAITAng-2-2 with the peptide at the C-terminus of the heavy chain; also called SAITAng-2-2 x DTN9VEGFR-2-3; not shown: human IgG1 heavy chain constant region with Fc region, from the vector; human light chain constant region, printed as 'constant region of human IgG1') heavy (part 1 of 2): QVQLQQSGPELVKPGASVKMSCKASGYTFTDYVISWVKQRTGQGLEWIGEIYPGSGSTYYNEKFKGKASLTADKSSNTAYMQLSSLTSADSAVYFCVRSRGDYYAMDYWGQGTSVTVSS heavy (part 2 of 2): EAGAYWCKAWGLSPCLVT light: DIQMTQSPSSLSASLGGKVTITCKASQDINNYITWYQHKPGKGPRLLIHYTSTLQPGIPSRFSGSGSGRDYSFSISNLEPEDIATYYCLQYDNLLTFGGGTKLEIK | 2.22 nM | 1.48 nM |
